Experimental data taken from article PMC5256278.

Legend:
[1] = target: squid hemocyanin (Todarodes pacificus) (Todarodes pacificus); assay: SAXS; Hc after high hydrostatic pressure at 600 MPa for 20 min; Kratky-type camera; aggregation numbers calculated with SAXS Quant 2.0
[2] = target: squid hemocyanin (Todarodes pacificus) (Todarodes pacificus); assay: SAXS; Hc after high hydrostatic pressure at 200 MPa for 20 min; Kratky-type camera; aggregation numbers calculated with SAXS Quant 2.0
[3] = target: squid hemocyanin (Todarodes pacificus) (Todarodes pacificus); assay: SAXS; Hc after high hydrostatic pressure at 400 MPa for 20 min; Kratky-type camera; aggregation numbers calculated with SAXS Quant 2.0
[4] = target: squid hemocyanin (Todarodes pacificus) (Todarodes pacificus); assay: SAXS; untreated control Hc (0.1 MPa, 25 °C) in solution; Kratky-type camera; aggregation numbers calculated with SAXS Quant 2.0

Substance: squid hemocyanin (Todarodes pacificus) (natural protein)
- 〈Nagg〉G (Guinier aggregation number) [1]: 16
- 〈Nagg〉Q (average aggregation number) [1]: 15.2
- 〈Nagg〉G (Guinier aggregation number) [2]: 11.9
- 〈Nagg〉Q (average aggregation number) [2]: 12.7
- 〈Nagg〉G (Guinier aggregation number) [3]: 14.2
- 〈Nagg〉Q (average aggregation number) [3]: 14.4
- 〈Nagg〉G (Guinier aggregation number) [4]: 10.2
- 〈Nagg〉Q (average aggregation number) [4]: 9.3
